According to patent publication US20250000976A1 (NATIONAL RESEARCH COUNCIL OF CANADA, published 2025):

T1: hBCMA-ECD-FC5VHH (human, UniProt Q02223 1-54, biotinylated in vivo ; biotinylated in vivo on the tag of the carrier part, which is not in the letters)
T1 construct: Made in HEK-293 cells, monomeric SEC fraction; The methods say about 500 RU captured on an SA chip; the results say immobilised on a CM5 chip; also called hBCMA-FC5; human BCMA-ECD; not shown: FC5 VHH carrier, any linker, and the His and biotinylation tags
T1 sequence: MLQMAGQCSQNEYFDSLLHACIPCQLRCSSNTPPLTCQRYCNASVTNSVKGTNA


What follows are binders tested against T1, hBCMA-ECD-FC5VHH (assay: SPR).

binding result | Binder
binds | hBCMA-2C3 (VHH, single biotin on the C-terminal AviTag, Variant of E7 with the same CDRs; also called VHH #2; not shown: C-terminal His tag and AviTag biotinylation signal from pMRO vector) VHH: QVKLEESGGGLVQTGDSLRLACTISGRATDHFVMAWFRRAPGKEREYVATRVWSGGSPYYLDSAKGRFAIAIDNAKNTAYLQMNNLKPEDTAVYYCAATKDIMSRSYDYWGLGTQVTVSS

Each binder was assayed against T1, hBCMA-ECD-FC5VHH (assay: SPR (Biacore T200), VHH 20-500 nM over BCMA-ECD surface, 25 C).
Protocol: For surface Plasmon resonance, 15 selected VHHs were passed though size exclusion columns, Superdex 75 (GE Healthcare), respectively, in 10 mM HEPES, pH 7.4, containing 150 mM NaCl, 3 mM EDTA, monomeric sdAb fractions were collected and protein concentrations were determined by measuring absorbance at 280 nm (A280). Analysis were performed with Biacore T200 instrument (GE Healthcare). All measurements were carried out at 25° C. in 10 mM HEPES, pH 7.4, containing 150 mM NaCl, 3 mM EDTA and 0.005% surfactant P20 (GE Healthcare). Approximately 500 RUs of the recombinant monomeric BCMA-ECD (obtained after SEC purification of the BCMA-ECD-FC5VHH) were captured on SA sensor chip (GE Healthcare) at a flow rate of 5 uL/min. Various concentration of the monomeric VHHs (20-500 nM) were injected over BCMA-ECD surface, respectively using an SA surface as a reference at a flow rate of 40 μL/min. Surfaces were generated by washing with running buffer. Data were analysed with BIAevaluation 4.1 software.
The monomeric fraction of all 15 VHHs were used for SPR experiment where the human BCMA-ECD or mouse BCMA was immobilized onto the CM5 dextran chip and various VHH concentration (20-500 nM) were passed over the sensor chip.

Kd [nM] | koff [s⁻¹] | kon [M⁻¹ s⁻¹] | Binder
0.0683 | 0.000349 | 5.11e+06 | hBCMA-F2 (VHH, single biotin on the C-terminal AviTag, not shown: C-terminal His tag and AviTag biotinylation signal from pMRO vector) VHH: QVKLEESGGGLVKPGGSLRLSCGASGNSFGAYNMGWYRQAPGKQRELVAAISSTGNTFYRDSVRGRFTVSRDNAKSTMSLQMERLKPEDTAVYLCNGAPWGDDPVKVWSWGQGTQVTVSS
0.303 | 0.000262 | 867000 | hBCMA-VcMRo1(V1/V6) (VHH, single biotin on the C-terminal AviTag, not shown: C-terminal His tag and AviTag biotinylation signal from pMRO vector) VHH: EVQLQQSGGGLVQAGESLTISCAVFGDPITVATMGWYRQAPGKLRELVAAISSAGSTFYRDSVRGRFTVSRDNAKSTMYLQMDRLKVEDTAVYSCNGAPWGDAPVKVWTWGEGTQVTVSS
0.216 | 0.00091 | 4.22e+06 | hBCMA-2F10 (VHH, single biotin on the C-terminal AviTag, not shown: C-terminal His tag and AviTag biotinylation signal from pMRO vector) VHH: QVQLVESGGGLVQSGNSLRLSCSISGHTTKNFVMAWFRRAPGKERAIVATRVWSGGSPWYSESAKGRFTISIDDARNTAYLQMNNLKPEDTAVYYCAATKDIMSRGYVYWGLGTQVTVSS
0.631 | 0.00253 | 4.01e+06 | hBCMA-3F2 (VHH, single biotin on the C-terminal AviTag, not shown: C-terminal His tag and AviTag biotinylation signal from pMRO vector) VHH: QVQLVESGGRLVQTGDSLRLTCEISGHTSNQFVLAWFRRPPGKEREVVATRFWGGGSPYYSDSVRGRFAIAIDDAKNTAYLQMSSLKPEDTAVYYCAATKDILSRGYDYWGQGTQVTVSS
0.152 | 0.000462 | 3.05e+06 | hBCMA-H1 (VHH, single biotin on the C-terminal AviTag, not shown: C-terminal His tag and AviTag biotinylation signal from pMRO vector) VHH: QVQLVESGGGLVQPGGSLRLSCAASGSGFGTHVMGWYRQAPGKPRELVAAISSAGSTFYRDSVKGRFTVSRDNAKNTMYLQMDRLKPEDTAVYYCNGAPWADEPVKVWNWGQGTQVTVSS
0.403 | 0.000978 | 2.42e+06 | hBCMA-D2 (VHH, single biotin on the C-terminal AviTag, not shown: C-terminal His tag and AviTag biotinylation signal from pMRO vector) VHH: QVQLVESGGGLVQPGGSLRLSCAASGSIFGTYNMGWYRQAPGKQRELVAAISSAGNTFYRDSVKGRFTVSRDNAKNTMYLQMDRLKYEDTAVYNCNGAPWGDALVKVWNWGQGTQVTVSS
0.22 | 0.00237 | 1.08e+07 | hBCMA-B5 (VHH, single biotin on the C-terminal AviTag, not shown: C-terminal His tag and AviTag biotinylation signal from pMRO vector) VHH: QVKLEESGGGLVQPGGSLRLSCAASGSIFGTYNMGWYRQAPGKQRELVAAISSAGNTFYRDSVKGRFTVSRDNAKNTVYLQMDRLKYEDTAVYNCNGAPWADAEVKVYNWGQGTQVTVSS
